Patent US20180125924A1 (NORTHWESTERN UNIVERSITY, published 2018)
Groups on a side chain read outwards from the residue. No end group written: not given here. *: point of attachment. triazole = 1,2,3-triazole formed by click reaction linking the lysine-side-chain spacer to the azidoethyl glycoside; Palmitoyl = CCCCCCCCCCCCCCCC(=O)*

Molecular target: recombinant human BMP-2 obtained from Medtronic Sofamor Danek (human, UniProt P12643 283-396)
Test: cell-based or functional assay

Chain of recombinant human BMP-2 obtained from Medtronic Sofamor Danek (P12643 283-396 limits assumed): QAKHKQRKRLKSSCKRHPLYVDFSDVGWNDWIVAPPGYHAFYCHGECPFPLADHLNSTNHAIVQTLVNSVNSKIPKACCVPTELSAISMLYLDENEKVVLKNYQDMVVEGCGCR

## Palmitoyl-VVAAEEK([COCH2(O(CH2)2)2NHCO(CH2)2-triazole-ethyl-2‑acetamido‑3,4,6‑tri‑O‑sulfo‑2‑deoxy‑beta‑D‑glycopyranoside]) (also: self-assembled nanofibers) [3,4,6S-GlcNAc PA (PA 1) nanofibers]
  ALP activity in C2C12 cells treated with BMP-2 (75 ng/mL) and PA nanofibers (25 uM): 9 fold
